Experiments:
[1] = target: the molecule itself; test: self-association; FRET in spectra and nondenaturing SDS-PAGE
[2] = target: the molecule itself; test: self-association; nondenaturing SDS-PAGE
Experimental: FIG. 4. Decreasing the net charge near the N terminus of DsRed reduces aggregation of the protein. (A) Nondenaturing SDS-PAGE of purified DsRed1 (WT), the Round 1 variant (R1), the Round 3 variant (R3), the Round 4 variant (R4), DsRed.T1 (T1), DsRed.T3 (T3) and DsRed.T4 (T4). 1 μg of each purified DsRed variant was mixed with SDS-containing sample buffer on ice and immediately electrophoresed at 4° C. in a 10% poly-acrylamide gel, followed by staining with Coomassie Blue. WT* and T4*: Additional aliquots of DsRed1 and DsRed.T4 were denatured by boiling prior to electrophoresis. MW: broad range prestained protein standard (Bio-Rad). (B) To measure the solubilities of the fluorescent proteins in E. coli, cells carrying pREP4 plus pQE31-based expression vectors encoding DsRed1, DsRed2, the Round 3 variant, the Round 4 variant, or EGFP were grown to an OD₆₀₀ of 0.5, induced with IPTG for 7 h, then lysed with B-PER II and centrifuged for 20 min at 27,000×g. […] The bound antibody was detected using the ECL-Plus kit (Amersham) and a Molecular Dynamics Storm 860 phosphorimager. For each fluorescent protein, a dilution series from the bacterial extract was analyzed, and a sample within the linear range for the detection system was chosen. The percentage of each protein in the supernatant fraction was then quantified. […]

B1: DsRed.T3 (other)
chain: MASSEDVIKEFMRFKVRMEGSVNGHEFEIEGEGEGRPYEGTQTAKLKVTKGGPLPFAWDILSPQFQYGSKVYVKHPADIPDYKKLSFPEGFKWERVMNFEDGGVVTVTQDSSLQDGCFIYKVKFIGVNFPSDGPVMQKKTMGWEPSTERLYPRDGVLKGEIHKALKLKDGGHYLVEFKSIYMAKKPVQLPGYYYVDSKLDITSHNEDYTIVEQYERTEGRHHLFL
notes: Fluorescent protein variant, purified with a hexahistidine tag from E. coli; Entered only for its self-association (tetramer); not shown: N-terminal hexahistidine tag (pQE31) and polylinker upstream of the start codon, carrying P(-4)L
B1: binds [1].

B2: DsRed.T4 (other)
chain: MASSEDVIKEFMRFKVRMEGSVNGHEFEIEGEGEGRPYEGTQTAKLKVTKGGPLPFAWDILSPQFQYGSKVYVKHPADIPDYKKLSFPEGFKWERVMNFEDGGVVTVTQDSSLQDGCFIYKVKFIGVNFPSDGPVMQKKTMGWEPSTERLYPRDGVLKGEIHKALKLKDGGHYLVEFKSIYMAKKPVQLPGYYYVDSKLDITSHNEDYTIVEQYERAEGRHHLFL
notes: as for B1
B2: binds [1].

B3: DsRed Round 4 variant (other)
chain: MASSEDVIKEFMRFKVRMEGSVNGHEFEIEGEGEGRPYEGTQTAKLKVTKGGPLPFAWDILSPQFQYGSKVYVKHPADIPDYKKLSFPEGFKWERVMNFEDGGVVTVTQDSSLQDGCFIYKVKFIGVNFPSDGPVMQKKTMGWEASTERLYPRDGVLKGEIHKALKLKDGGHYLVEFKSIYMAKKPVQLPGYYYVDSKLDITSHNEDYTIVEQYERTEGRHHLFL
notes: Round 3 variant plus R2A, K5E and N6D; also called R4; not shown: N-terminal hexahistidine tag (pQE31) and polylinker upstream of the start codon, carrying P(-4)L
B3: binds [2].
